Drawing on patent EP1262190A1, “RFRP-CONTAINING PROLACTIN SECRETION REGULATORY AGENT” (Takeda Chemical Industries, Ltd., priority 2000, dated 2001), this text covers ED50, inhibition of the cAMP level increased by forskolin for 2 substances.

In this assay the target is human 0T7T022 receptor (human). The assay is described as follows: cell-based or functional assay.

“rRFRP-1-37 (peptide having the 58 (Ser) to 94 (Phe) amino acid sequence in SEQ ID NO:50)” registered an ED50, inhibition of the cAMP level increased by forskolin of 30 nM. Regarding “hRFRP-1-37 (peptide having the 56 (Ser) to 92 (Phe) amino acid sequence in SEQ ID NO:1)”, the ED50, inhibition of the cAMP level increased by forskolin is 21 nM.
